According to IntAct's records for PubMed 18498651:

B1: Double-stranded RNA-binding protein Staufen homolog 1 (Homo sapiens), O95793-2 (parent)
chain: MKLGKKPMYKPVDPYSRMQSTYNYNMRGGAYPPRYFYPFPVPPLLYQVELSVGGQQFNGKGKTRQAAKHDAAAKALRILQNEPLPERLEVNGRESEEENLNKSEISQVFEIALKRNLPVNFEVARESGPPHMKNFVTKVSVGEFVGEGEGKSKKISKKNAAIAVLEELKKLPPLPAVERVKPRIKKKTKPIVKPQTSPEYGQGINPISRLAQIQQAKKEKEPEYTLLTERGLPRRREFVMQVKVGNHTAEGTGTNKKVAKRNAAENMLEILGFKVPQAQPTKPALKSEEKTPIKKPGDGRKVTFFEPGSGDENGTSNKEDEFRMPYLSHQQLPAGILPMVPEVAQAVGVSQGHHTKDFTRAAPNPAKATVTAMIARELLYGGTSPTAETILKNNISSGHVPHGPLTRPSEQLDYLSRVQGFQVEYKDFPKNNKNEFVSLINCSSQPPLISHGIGKDVESCHDMAALNILKLLSELDQQSTEMPRTGNGPMSVCGRC

Variants of: B1
Settings: with gag_hv1h2 gag

Q: With F135A as the variant, how does the “effect of a mutation on the interaction” value read?
A: Its value is “disrupting interaction”.
